# Patent publication US20220089663A1, “PROTEINS AND FLUOROPHORE-CONTAINING COMPOUNDS SELECTIVE FOR NaV1.7” (MEMORIAL SLOAN KETTERING CANCER CENTER, priority 2019, published 2022)
# Where two headings read alike, the source gives them in different places.
# Columns and labels:
# Assay in all cases: cell-based or functional assay
# Cav1.1 = biological target: Cav1.1
# Cav1.3 = biological target: Cav1.3
# Cav2.2 = biological target: Cav2.2
# Kv2.1 = biological target: Kv2.1
# Nav1.8 = biological target: Nav1.8
# Nav1.9 = biological target: Nav1.9
# hERG, Q12809 = biological target: T1, hERG, Q12809
# T1 chain: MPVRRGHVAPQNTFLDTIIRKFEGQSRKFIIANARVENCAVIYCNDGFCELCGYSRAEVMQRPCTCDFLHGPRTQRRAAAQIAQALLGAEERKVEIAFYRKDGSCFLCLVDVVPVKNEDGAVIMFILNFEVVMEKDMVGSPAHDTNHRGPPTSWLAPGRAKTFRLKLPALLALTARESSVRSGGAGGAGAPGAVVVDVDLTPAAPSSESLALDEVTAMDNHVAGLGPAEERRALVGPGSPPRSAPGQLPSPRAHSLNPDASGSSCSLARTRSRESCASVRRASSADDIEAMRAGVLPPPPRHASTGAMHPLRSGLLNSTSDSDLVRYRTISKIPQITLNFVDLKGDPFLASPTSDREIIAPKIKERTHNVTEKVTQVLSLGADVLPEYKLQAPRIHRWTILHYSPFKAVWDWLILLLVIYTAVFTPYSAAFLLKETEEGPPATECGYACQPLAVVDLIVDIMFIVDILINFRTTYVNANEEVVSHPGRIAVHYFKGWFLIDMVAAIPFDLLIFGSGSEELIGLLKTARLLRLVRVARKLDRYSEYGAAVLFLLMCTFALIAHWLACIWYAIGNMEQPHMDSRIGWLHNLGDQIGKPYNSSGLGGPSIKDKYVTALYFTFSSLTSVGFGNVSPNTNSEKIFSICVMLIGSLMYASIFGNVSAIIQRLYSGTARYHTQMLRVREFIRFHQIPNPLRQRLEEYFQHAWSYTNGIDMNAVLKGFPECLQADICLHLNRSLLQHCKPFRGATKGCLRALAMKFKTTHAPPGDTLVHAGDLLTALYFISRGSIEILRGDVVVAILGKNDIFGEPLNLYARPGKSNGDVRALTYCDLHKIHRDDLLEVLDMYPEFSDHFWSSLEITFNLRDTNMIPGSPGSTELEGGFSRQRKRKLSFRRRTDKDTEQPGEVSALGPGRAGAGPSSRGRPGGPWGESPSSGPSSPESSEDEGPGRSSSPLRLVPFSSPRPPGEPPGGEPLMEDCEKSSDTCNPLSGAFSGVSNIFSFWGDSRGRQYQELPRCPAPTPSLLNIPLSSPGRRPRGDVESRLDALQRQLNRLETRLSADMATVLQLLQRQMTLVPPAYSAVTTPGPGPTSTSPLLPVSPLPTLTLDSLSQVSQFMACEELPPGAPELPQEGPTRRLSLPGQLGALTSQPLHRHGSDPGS
# hNav1.1 (human), P35498 = biological target: hNav1.1 (human), P35498
# hNav1.2 (human), Q99250 = biological target: hNav1.2 (human), Q99250
# hNav1.3 (human), Q9NY46 = biological target: hNav1.3 (human), Q9NY46
# hNav1.4 (human), P35499 = biological target: hNav1.4 (human), P35499
# hNav1.5 (human), Q14524 = biological target: hNav1.5 (human), Q14524
# hNav1.6 (human), Q9UQD0 [1] = biological target: hNav1.6 (human), Q9UQD0
# hNav1.7 (human), Q15858 [2] = biological target: hNav1.7 (human), Q15858
# hNav1.6 (human), Q9UQD0 [3] = biological target: hNav1.6 (human), Q9UQD0; remark: listed apart in the source
# hNav1.7 (human), Q15858 [4] = biological target: hNav1.7 (human), Q15858; remark: listed apart in the source
binder,measurement,setting,value
GNDCLGFWSACNPKNDKCCANLVCSSKHKWCKGKL (modifications not checked) [Hs1a],IC50,Cav1.1,> 3000 nM
same,IC50,Cav1.3,> 3000 nM
same,IC50,Cav2.2,> 3000 nM
same,IC50,Kv2.1,> 3000 nM
same,IC50,Nav1.8,> 3000 nM
same,IC50,Nav1.9,> 3000 nM
same,IC50,"hERG, Q12809",> 3000 nM
same,"IC50, automated patch clamp","hNav1.1 (human), P35498",19.4 nM
same,"IC50, automated patch clamp","hNav1.2 (human), Q99250",82.2 nM
same,"IC50, automated patch clamp","hNav1.3 (human), Q9NY46",107 nM
same,"IC50, automated patch clamp","hNav1.4 (human), P35499",> 3000 nM
same,"IC50, automated patch clamp","hNav1.5 (human), Q14524",> 3000 nM
same,"IC50, automated patch clamp","hNav1.6 (human), Q9UQD0 [1]",168 nM
same,"IC50, automated patch clamp","hNav1.7 (human), Q15858 [2]",45.7 nM
same,"IC50, automated patch clamp","hNav1.6 (human), Q9UQD0 [3]",19.2 nM
same,"IC50, automated patch clamp","hNav1.7 (human), Q15858 [4]",26.9 nM
GNDCLGFWSACNPKNDKCCANLVCSSKHKWCKGKL (modifications not checked) [Hs1a-FL],"IC50, patch clamp on HEK293 cells","hNav1.1 (human), P35498",19.4 nM
same,"IC50, patch clamp on HEK293 cells","hNav1.2 (human), Q99250",81.2 nM
same,"IC50, patch clamp on HEK293 cells","hNav1.3 (human), Q9NY46",107 nM
same,"IC50, patch clamp on HEK293 cells","hNav1.4 (human), P35499",> 3000 nM
same,"IC50, patch clamp on HEK293 cells","hNav1.5 (human), Q14524",> 3000 nM
same,"IC50, patch clamp on HEK293 cells","hNav1.6 (human), Q9UQD0 [1]",19.2 nM
same,"IC50, patch clamp on HEK293 cells","hNav1.7 (human), Q15858 [2]",26.9 nM
YCQKFLWTCDSERPCCEGLVCRLWCKIN (modifications not checked) [Hsp1a-FL],"IC50, automated whole-cell patch clamp","hNav1.7 (human), Q15858 [2]",62 nM
